Results as given in article PMC10786891, “Massively parallel profiling of RNA-targeting CRISPR-Cas13d”.
Positions count from the first letter of the chain named. In names and notes the source's numbering stands.

T1: EsCas13d, nuclease-dead (Eubacterium siraeum, UniProt B0MS50, R295A;H300A;R849A;H854A)
T1 sequence: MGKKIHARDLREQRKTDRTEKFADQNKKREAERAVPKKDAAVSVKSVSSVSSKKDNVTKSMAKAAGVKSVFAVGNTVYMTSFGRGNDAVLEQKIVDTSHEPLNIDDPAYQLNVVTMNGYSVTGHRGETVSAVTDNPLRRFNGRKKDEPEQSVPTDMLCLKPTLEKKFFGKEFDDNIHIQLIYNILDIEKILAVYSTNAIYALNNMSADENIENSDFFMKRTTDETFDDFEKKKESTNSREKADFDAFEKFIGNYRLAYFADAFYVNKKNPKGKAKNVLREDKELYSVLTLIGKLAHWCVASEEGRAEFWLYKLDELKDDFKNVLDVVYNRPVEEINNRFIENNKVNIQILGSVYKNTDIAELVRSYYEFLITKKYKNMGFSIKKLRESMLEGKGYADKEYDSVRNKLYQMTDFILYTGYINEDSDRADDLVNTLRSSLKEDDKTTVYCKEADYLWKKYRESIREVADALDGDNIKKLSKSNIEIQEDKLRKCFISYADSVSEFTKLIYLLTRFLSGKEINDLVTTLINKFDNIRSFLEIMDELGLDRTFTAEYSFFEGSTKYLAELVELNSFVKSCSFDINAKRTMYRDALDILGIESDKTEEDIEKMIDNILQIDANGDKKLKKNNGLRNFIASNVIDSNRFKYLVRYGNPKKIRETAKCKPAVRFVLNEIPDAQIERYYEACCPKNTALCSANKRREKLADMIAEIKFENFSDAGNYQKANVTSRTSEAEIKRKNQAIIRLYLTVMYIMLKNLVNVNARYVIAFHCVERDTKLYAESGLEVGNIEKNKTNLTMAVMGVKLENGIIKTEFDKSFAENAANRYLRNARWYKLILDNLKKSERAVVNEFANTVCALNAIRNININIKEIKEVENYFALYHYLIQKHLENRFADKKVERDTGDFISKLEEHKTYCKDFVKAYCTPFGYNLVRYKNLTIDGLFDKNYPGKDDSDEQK

B1: target 1 U3G,G17C (mixed)
RNA 1: CACCCGUGCAAAAAUGCAGGGGUCUAAAACUGAGCGGAUAACCUCUCUAUGG
RNA 2: GGGAAUGGAUCCACAUCUACGAAUUCGUACCAUACAGAGGUUAUCCGCGCACCGAGAUCGGAAGAGCACACGU
B2: target 1 C2U,U10A (mixed)
RNA 1: B1 RNA 1
RNA 2: B1 RNA 2 with C35G, U42A, G49U, C50U
B3: target 1 G13U,A16C (mixed)
RNA 1: B1 RNA 1
RNA 2: B1 RNA 2 with C35G, A36C, G39U, G49U
B4: target 2 MT 5'PFS UGA 3'PFS UAA (mixed)
RNA 1: CACCCGUGCAAAAUUGCAGGGGUCUAAAACCUUCUCCAAAUUGUUUCAUCCU
RNA 2: GGGAAUGGAUCCACAUCUACGAAUUCUGAAGGAUGAAACAAUUUGGAGAAGUAAAGAUCGGAAGAGCACACGU
B5: target 2 MT 5'PFS CUG 3'PFS AAC (mixed)
RNA 1: B4 RNA 1
RNA 2: B4 RNA 2 with U27C, G28U, A29G, U52A, A54C
B6: target 2 MT 5'PFS AAC 3'PFS CUU (mixed)
RNA 1: B4 RNA 1
RNA 2: B4 RNA 2 with U27A, G28A, A29C, U52C, A53U, A54U
B7: target 2 MT 5'PFS UCU 3'PFS CUA (mixed)
RNA 1: B4 RNA 1
RNA 2: B4 RNA 2 with G28C, A29U, U52C, A53U
B8: target 2 MT 5'PFS AAA 3'PFS AUA (mixed)
RNA 1: B4 RNA 1
RNA 2: B4 RNA 2 with U27A, G28A, U52A, A53U
B9: target 2 MT 5'PFS GUG 3'PFS UAA (mixed)
RNA 1: B4 RNA 1
RNA 2: B4 RNA 2 with U27G, G28U, A29G
B10: target 2 MT 5'PFS UAG 3'PFS UUC (mixed)
RNA 1: B4 RNA 1
RNA 2: B4 RNA 2 with G28A, A29G, A53U, A54C
B11: target 2 MT 5'PFS AAG 3'PFS UUA (mixed)
RNA 1: B4 RNA 1
RNA 2: B4 RNA 2 with U27A, G28A, A29G, A53U
B12: target 2 MT 5'PFS UCU 3'PFS CUC (mixed)
RNA 1: B4 RNA 1
RNA 2: B4 RNA 2 with G28C, A29U, U52C, A53U, A54C
B13: target 2 MT 5'PFS GUG 3'PFS UAC (mixed)
RNA 1: B4 RNA 1
RNA 2: B4 RNA 2 with U27G, G28U, A29G, A54C
B14: target 2 MT 5'PFS AUU 3'PFS CUU (mixed)
RNA 1: B4 RNA 1
RNA 2: B4 RNA 2 with U27A, G28U, A29U, U52C, A53U, A54U
B15: target 2 MT 5'PFS ACU 3'PFS AGC (mixed)
RNA 1: B4 RNA 1
RNA 2: B4 RNA 2 with U27A, G28C, A29U, U52A, A53G, A54C
B16: target 2 MT 5'PFS UAC 3'PFS CAG (mixed)
RNA 1: B4 RNA 1
RNA 2: B4 RNA 2 with G28A, A29C, U52C, A54G
B17: target 2 MT 5'PFS GAU 3'PFS CGU (mixed)
RNA 1: B4 RNA 1
RNA 2: B4 RNA 2 with U27G, G28A, A29U, U52C, A53G, A54U
B18: target 2 MT 5'PFS GCA 3'PFS ACU (mixed)
RNA 1: B4 RNA 1
RNA 2: B4 RNA 2 with U27G, G28C, U52A, A53C, A54U
B19: target 2 MT 5'PFS GUG 3'PFS UAU (mixed)
RNA 1: B4 RNA 1
RNA 2: B4 RNA 2 with U27G, G28U, A29G, A54U
B20: target 2 MT 5'PFS GCA 3'PFS ACA (mixed)
RNA 1: B4 RNA 1
RNA 2: B4 RNA 2 with U27G, G28C, U52A, A53C
B21: target 2 MT 5'PFS UAG 3'PFS UUA (mixed)
RNA 1: B4 RNA 1
RNA 2: B4 RNA 2 with G28A, A29G, A53U
B22: target 2 MT 5'PFS AUG 3'PFS AGA (mixed)
RNA 1: B4 RNA 1
RNA 2: B4 RNA 2 with U27A, G28U, A29G, U52A, A53G
B23: target 2 MT 5'PFS GGC 3'PFS UAG (mixed)
RNA 1: B4 RNA 1
RNA 2: B4 RNA 2 with U27G, A29C, A54G
B24: target 2 MT 5'PFS GCA 3'PFS ACG (mixed)
RNA 1: B4 RNA 1
RNA 2: B4 RNA 2 with U27G, G28C, U52A, A53C, A54G
B25: target 2 MT 5'PFS GCG 3'PFS AAC (mixed)
RNA 1: B4 RNA 1
RNA 2: B4 RNA 2 with U27G, G28C, A29G, U52A, A54C
B26: target 2 MT 5'PFS CUG 3'PFS AAU (mixed)
RNA 1: B4 RNA 1
RNA 2: B4 RNA 2 with U27C, G28U, A29G, U52A, A54U
B27: target 2 MT 5'PFS ACU 3'PFS AGA (mixed)
RNA 1: B4 RNA 1
RNA 2: B4 RNA 2 with U27A, G28C, A29U, U52A, A53G
B28: target 2 MT 5'PFS CUG 3'PFS AAA (mixed)
RNA 1: B4 RNA 1
RNA 2: B4 RNA 2 with U27C, G28U, A29G, U52A
B29: target 2 MT 5'PFS ACU 3'PFS AGG (mixed)
RNA 1: B4 RNA 1
RNA 2: B4 RNA 2 with U27A, G28C, A29U, U52A, A53G, A54G
B30: target 2 MT 5'PFS UUC 3'PFS UCC (mixed)
RNA 1: B4 RNA 1
RNA 2: B4 RNA 2 with G28U, A29C, A53C, A54C
B31: target 2 MT 5'PFS CGC 3'PFS AAA (mixed)
RNA 1: B4 RNA 1
RNA 2: B4 RNA 2 with U27C, A29C, U52A
B32: target 2 MT 5'PFS AUG 3'PFS AGU (mixed)
RNA 1: B4 RNA 1
RNA 2: B4 RNA 2 with U27A, G28U, A29G, U52A, A53G, A54U
B33: target 2 MT 5'PFS CUG 3'PFS AAG (mixed)
RNA 1: B4 RNA 1
RNA 2: B4 RNA 2 with U27C, G28U, A29G, U52A, A54G
B34: target 2 MT 5'PFS CGC 3'PFS AAG (mixed)
RNA 1: B4 RNA 1
RNA 2: B4 RNA 2 with U27C, A29C, U52A, A54G
B35: target 2 MT 5'PFS GCA 3'PFS ACC (mixed)
RNA 1: B4 RNA 1
RNA 2: B4 RNA 2 with U27G, G28C, U52A, A53C, A54C
B36: target 2 MT 5'PFS UCU 3'PFS CUU (mixed)
RNA 1: B4 RNA 1
RNA 2: B4 RNA 2 with G28C, A29U, U52C, A53U, A54U
B37: target 2 MT 5'PFS CGC 3'PFS AAC (mixed)
RNA 1: B4 RNA 1
RNA 2: B4 RNA 2 with U27C, A29C, U52A, A54C
B38: target 2 MT 5'PFS GCG 3'PFS AAU (mixed)
RNA 1: B4 RNA 1
RNA 2: B4 RNA 2 with U27G, G28C, A29G, U52A, A54U

The binders below were run against T1, EsCas13d, nuclease-dead (assay: crRNA (strand 1, pre-loaded); Mg2+; 40 mM Tris-HCl pH 7.5, 150 mM NaCl, 6 mM MgCl2, 1 mM DTT, 0.1% Tween-20, 0.2 mg/ml BSA; 25 C; 10 min per concentration, then washed). Conditions: tags: His6-TwinStrep-SUMO cleaved; N-terminal SNAP kept (SNAP-Surface 488); label: 3' end held by stalled T7 RNA polymerase.
B1 gave a Kd of 36.7 ± 2.8 nM. In the case of B2, the Kd is reported as 11.6 ± 1.4 nM. Work on B3 yielded a Kd of 68 ± 14 nM. For B4, the Kd was 6 ± 1.3 nM. B5 was tested, and the Kd was 3.4 ± 0.4 nM. B6 gave a Kd of 9.1 ± 2.7 nM. Binder B7 has a Kd of 20 ± 6 nM. B8 was tested, and the Kd was 4.4 ± 1 nM. B9 gave a Kd of 9 ± 0.7 nM. With B10 the Kd was 7.2 ± 0.9 nM. Work on B11 yielded a Kd of 6.8 ± 1.3 nM. In the case of B12, the Kd is reported as 9.3 ± 1.6 nM. In the case of B13, the Kd is reported as 15.1 ± 1.5 nM. For B14, the Kd was 10 ± 1 nM. B15 was tested, and the Kd was 3.18 ± 0.3 nM. B16 was tested, and the Kd was 8.5 ± 3 nM. Binder B17 has a Kd of 14.1 ± 2.6 nM. B18 was tested, and the Kd was 13.2 ± 1.8 nM. For B19, the Kd was 9.5 ± 0.7 nM. B20 gave a Kd of 10.2 ± 1.7 nM. For B21, the Kd was 8.1 ± 1.6 nM. Binder B22 has a Kd of 15 ± 5 nM. B23 was tested, and the Kd was 13.1 ± 2 nM. Work on B24 yielded a Kd of 13.3 ± 2 nM. B25 showed a Kd of 15 ± 4 nM. B26 gave a Kd of 3.6 ± 0.5 nM. With B27 the Kd was 3.7 ± 0.5 nM. B28 gave a Kd of 2.9 ± 0.32 nM. B29 showed a Kd of 4.5 ± 0.6 nM. Binder B30 has a Kd of 19.6 ± 3 nM. B31 gave a Kd of 5.8 ± 1.6 nM. B32 was tested, and the Kd was 11.1 ± 1.6 nM. B33 showed a Kd of 3 ± 0.4 nM. B34 showed a Kd of 4 ± 0.6 nM. B35 gave a Kd of about 36 nM. B36 showed a Kd of 14.1 ± 2.5 nM. Binder B37 has a Kd of 4.9 ± 0.5 nM. Binder B38 has a Kd of 8.4 ± 1.3 nM.
